Experimental findings from patent publication US20240325564A1, “PHARMACEUTICAL COMPOSITION CONTAINING ANTI-TROP2 ANTIBODY DRUG CONJUGATE AND ITS APPLICATION” (JIANGSU HENGRUI PHARMACEUTICALS CO., LTD., priority 2021, published 2024) are described below.

Test in all cases: cell-based or functional assay
Experiment [1] deals with T1, TROP-2 expressed on cells (UniProt P09758 27-323, limits assumed).
T1 sequence (looked up): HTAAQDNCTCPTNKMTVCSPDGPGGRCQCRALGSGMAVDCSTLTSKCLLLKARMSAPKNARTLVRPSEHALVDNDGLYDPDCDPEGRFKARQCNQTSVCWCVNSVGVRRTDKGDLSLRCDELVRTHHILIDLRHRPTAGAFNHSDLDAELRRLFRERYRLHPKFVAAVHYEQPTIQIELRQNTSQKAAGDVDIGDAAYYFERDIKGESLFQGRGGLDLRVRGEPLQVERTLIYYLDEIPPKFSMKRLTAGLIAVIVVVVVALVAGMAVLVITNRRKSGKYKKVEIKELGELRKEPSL

Experiment [2] addresses T1, TROP-2 expressed on cells. The source holds these as a separate data set.
The target of experiment [3] is T1, TROP-2 expressed on cells. The source holds these as a separate data set.

B1: PD3 anti-TROP2 antibody (antibody, human IgG1, kappa, V domains shown)
VH: EVQLVQSGSELKKPGASVKVSCKASGYTFTNYGMNWVKQAPGQGLKWMGWINTYTGEPTYTQDFKGRFAFSLDTSVSTAYLQISSLKAEDTAVYYCARGGFGSSYWYFDVWGQGTLVTVSS
VL: DIQLTQSPSSLSASVGDRVSITCKASQDVSIAVAWYQQKPGKAPKLLIYSASYRYTGVPDRFSGSGSGTDFTLTISSLQPEDFAVYYCQQHYITPLTFGAGTKVEIKR
In the case of B1, in experiment [1], the “EC50, antibody endocytic activity (DT3C cell killing, CTG)” value (“EC50, antibody endocytic activity” for short) is 150 pM and the “Emax, antibody endocytic activity (DT3C cell killing, CTG)” value (“Emax, antibody endocytic activity” below) came to 99.1%.

B2: TINA antibody (constructed according to WO2015098099A1) (antibody, human IgG1, kappa, V domains shown)
VH: QVQLVQSGAEVKKPGASVKVSCKASGYTFTTAGMQWVRQAPGQGLEWMGWINTHSGVPKYAEDFKGRVTISADTSTSTAYLQLSSLKSEDTAVYYCARSGFGSSYWYFDVWGQGTLVTVSS
VL: DIQMTQSPSSLSASVGDRVTITCKASQDVSTAVAWYQQKPGKAPKLLIYSASYRYTGVPSRFSGSGSGTDFTLTISSLQPEDFAVYYCQQHYITPLTFGQGTKLEIKR
For B2, in experiment [1], the “EC50, antibody endocytic activity” value was 180 pM and the “Emax, antibody endocytic activity” value was found to be 98.7%.

B3: ADC-4 (TINA-58) (antibody, human IgG1, kappa, V domains shown)
VH: QVQLVQSGAEVKKPGASVKVSCKASGYTFTTAGMQWVRQAPGQGLEWMGWINTHSGVPKYAEDFKGRVTISADTSTSTAYLQLSSLKSEDTAVYYCARSGFGSSYWYFDVWGQGTLVTVSS
VL: DIQMTQSPSSLSASVGDRVTITCKASQDVSTAVAWYQQKPGKAPKLLIYSASYRYTGVPSRFSGSGSGTDFTLTISSLQPEDFAVYYCQQHYITPLTFGQGTKLEIKR
modifications: compound 58 (linker-drug) conjugated after TCEP reduction of the antibody; average n=3.99 per antibody (UV-Vis); sites not stated
In the case of B3, in experiment [2], the “EC50, killing activity on Colo205(++) cells” value was found to be 59800 pM; the “EC50, killing activity on DMS53(++) cells” value came out at 75600 pM; the “EC50, killing activity on FaDu(+++) cells” value amounted to 530 pM; the “EC50, killing activity on HCC827(+++) cells” value is 270 pM. For the same molecule, in experiment [2], the “Emax, killing activity on Colo205(++) cells” value was 99.7%; the “Emax, killing activity on DMS53(++) cells” value was found to be 89.8%; the “Emax, killing activity on FaDu(+++) cells” value worked out at 101%; the “Emax, killing activity on HCC827(+++) cells” value was 88.2%. Besides, in experiment [2], the “Emax, killing activity on SK-OV-3(+) cells” value is 49.1%.

B4: ADC-5 (PD3-58) (antibody, human IgG1, kappa, V domains shown)
VH: EVQLVQSGSELKKPGASVKVSCKASGYTFTNYGMNWVKQAPGQGLKWMGWINTYTGEPTYTQDFKGRFAFSLDTSVSTAYLQISSLKAEDTAVYYCARGGFGSSYWYFDVWGQGTLVTVSS
VL: DIQLTQSPSSLSASVGDRVSITCKASQDVSIAVAWYQQKPGKAPKLLIYSASYRYTGVPDRFSGSGSGTDFTLTISSLQPEDFAVYYCQQHYITPLTFGAGTKVEIKR
modifications: compound 58 (linker-drug) conjugated after TCEP reduction of the antibody; average n=3.88 per antibody (UV-Vis); sites not stated
For the molecule B4, in experiment [3], the “EC50, killing activity on Colo205 cells (second parallel assay)” value was 25600 pM; the “EC50, killing activity on DMS53 cells (second parallel assay)” value is 25700 pM; the “EC50, killing activity on FaDu cells (second parallel assay)” value was 140 pM; the “EC50, killing activity on HCC827 cells (second parallel assay)” value amounted to 130 pM.

B5: ADC-7 (hRS7-9-A) (antibody, human IgG1, kappa, V domains shown)
VH: QVQLQQSGSELKKPGASVKVSCKASGYTFTNYGMNWVKQAPGQGLKWMGWINTYTGEPTYTDDFKGRFAFSLDTSVSTAYLQISSLKADDTAVYFCARGGFGSSYWYFDVWGQGSLVTVSS
VL: DIQLTQSPSSLSASVGDRVSITCKASQDVSIAVAWYQQKPGKAPKLLIYSASYRYTGVPDRFSGSGSGTDFTLTISSLQPEDFAVYYCQQHYITPLTFGAGTKVEIKR
modifications: compound 9-A (linker-drug) conjugated after TCEP reduction of the antibody; average n=3.72 per antibody (UV-Vis); sites not stated
Turning to B5, in experiment [2], the “EC50, killing activity on Colo205(++) cells” value was 52800 pM; the “EC50, killing activity on DMS53(++) cells” value was found to be 72900 pM; the “EC50, killing activity on FaDu(+++) cells” value was 310 pM; the “EC50, killing activity on HCC827(+++) cells” value worked out at 180 pM. In experiment [2], the “Emax, killing activity on Colo205(++) cells” value is 99.5%; the “Emax, killing activity on DMS53(++) cells” value worked out at 88.7%; the “Emax, killing activity on FaDu(+++) cells” value turned out to be 101%; the “Emax, killing activity on HCC827(+++) cells” value was determined as 89.3%. Moreover, the “Emax, killing activity on SK-OV-3(+) cells” value in experiment [2] came out at 66.1%.

B6: hRS7 (control anti-TROP-2 antibody, constructed according to WO03074566) (antibody, human IgG1, kappa, V domains shown)
VH: QVQLQQSGSELKKPGASVKVSCKASGYTFTNYGMNWVKQAPGQGLKWMGWINTYTGEPTYTDDFKGRFAFSLDTSVSTAYLQISSLKADDTAVYFCARGGFGSSYWYFDVWGQGSLVTVSS
VL: DIQLTQSPSSLSASVGDRVSITCKASQDVSIAVAWYQQKPGKAPKLLIYSASYRYTGVPDRFSGSGSGTDFTLTISSLQPEDFAVYYCQQHYITPLTFGAGTKVEIKR
With B6, in experiment [1], the “EC50, antibody endocytic activity” value came out at 180 pM and the “Emax, antibody endocytic activity” value is 98.5%.
